The text below walks through data of the RNAGym collection of RNA variant scans (doi:10.1073/pnas.2313332121).

Variants at the floor of the assay were thinned out.

The labels stand for the following.
B1: TPR 5TU (parent)
chain: GGAUCUUCUCGAUCUAACAAAAAAGACAAAUCUGCCACAAAGCUUGAGAGCAUCUUCGGAUGCAGAGGCGGCAGCCUUCGGUGGCGCGAUAGCGCCAACGUUCUCAACUAUGACACGCAAAACGCGUGCUCCGUUGAAUGGAGUUUAUCAUG

In the data set the parent is B1. The data set can be described thus: polymerase ribozyme fitness, log enrichment relative to wild type (log ratio); higher = more active; in vitro selection for triplet polymerase activity. The gist of the method: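 To select mutant libraries of each subunit of a heterodimeric triplet polymerase ribozyme, built by PCR and transcribed, each was annealed with a biotinylated primer, partner subunit and triplets, then incubated frozen at −7 °C. Extended constructs were gel-excised, captured on streptavidin beads and amplified by RT-PCR, in one round carried out in triplicate. Illumina sequencing of input and output libraries kept genotypes with ≥10 input reads and ≥1 read per output. Fitness is the base-2 logarithm of genotype enrichment relative to wild-type enrichment, from inverse-variance-weighted replicate averages.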
Turning to GGAUCUUCUCGAUCUAACAAAAUAGACAAAUCUGCCACAAAGCUUUAGAGCAUCUUCGGAUGCAGAGGCGGCAGCCUUCGGUGGCGUUAUAGCGCCAACGUUCUCAACUAUGACACGCGCAACGCGUGCUCCUUUGAAUGGAGUUUAUCAUG [A23U G46U C87U G88U A119G A120C G133U], the “polymerase ribozyme fitness (log ratio)” value was not above -4.2. As to GGAUCUUCUCGAUCUAACAAAAUAGACAAAUCUGCCACAAAGCUUGAGAACAUCUUCGGCUGCAGUGGCGGCAGCCUUCGGUGGUGCGAUAGCGGCAACGUUCUCAACUAUGACACGCAAACCGCGUGCUCCGUUGAAUGGAGUUUAUCAUG [A23U G50A A60C A66U C85U C95G A122C], the “polymerase ribozyme fitness (log ratio)” value was not above -4.2. For GGAUCUUCUCGAUCUAACAAAAUAGACAAACCUGCCACAAAGCUUGAGAGCAUCUUCGGAUGCAGAGGCGGCAGCCUUCGGUGGCGGGAUAGCGCCAACGUUCGCAACUAUGACACGCAAAACGCGUGCUCCGUUGAAUGGAGUUUAUCAUG [A23U U31C C87G U104G], the “polymerase ribozyme fitness (log ratio)” value is not above -4.2.

As for GGAUCUUCUCGAUCUAACAAAAUAGACAAAUCUGCCACAAAGCUUGAGAGCAUCUUCGGAUGCAGAGGCGGCAGCCUUCGGUGGCGCGAUAGCACCAACGUUCUCAACUAUGACACGCAAAACGCGUGCUCCGUUGAAUGGAGUUUAUCAUG [A23U G94A], the “polymerase ribozyme fitness (log ratio)” value is -3.99. For GGAUCUUCUCGAUCUAACAAAAUAGACAAAUCUGCCACAAAGCUUGAGAGCAUCUUCGGAUGCAGAGGCGGCAGCCUUCGGUGACGCGAUAGCGCCAACGUUCUCAACUAUGACACGCAAAACGCGUGCUCCGUUGAAUGGAGUUUAUCAUG [A23U G84A], the “polymerase ribozyme fitness (log ratio)” value is -3.32. Take GGAUCUUCUCGAUCUAACAAAAUAGACAAAUCUGCCACAAAGCUUGAGAGCAUCUUCCGAUGCAGAGGCGGCAGCCUUCGGUGGCGCUAUAGCGCCAACGUUCUCAACUAUGACACGCAAAACGCGUGCUCCGUUAAAUGGAGUUUAUCAUG [A23U G58C G88U G136A]: the “polymerase ribozyme fitness (log ratio)” value is not above -4.2.

Take GGAUCUUCUCGAUCUAACAAAAUAGACAAAUCUGCCACAAAGCUUGAGAGCAUCUUCGGAUGCAGAGGCGGCAGCCUUCGGUGGUGCGAUAGCGCCAACGUUCUCAACUAUGACACGCAAAACGCGUGCUCCGUUGAAUGGAGUUUAUCAUG [A23U C85U]: the “polymerase ribozyme fitness (log ratio)” value was -3.33. Consider GGAUCUUCUCGAUCUAACAAAAUAGACAAAUCUGCCACAAAGCUUGAGAGCAUCUUCGGAUGCAGAGGCGGCAGCCUUCGGUGGCGCGAUAGAGCCAACGUUCUCAACUAUGACACGCAAAACGCGUGCUCCGUUGAAUGGAGUUUAUCAUG [A23U C93A], for which the “polymerase ribozyme fitness (log ratio)” value is not above -4.2.

As to GGAUCUUCUCGAUCUAACAAAAUAGACAAAUCUGCCACAAAGCUUGAGAGCAUCAUCGGAUGCAGAGGCGGCAGCCUUCGGUGGCGCGAUAGCGCCAACGUUCUCAACUAUGACACGCAAAACGCGUGCUCCGUUGAAUGGAGUUUAUCAUG [A23U U55A], the “polymerase ribozyme fitness (log ratio)” value is -3.85. To GGAUCUUCUCGAUCUAACAAAAUAGACAAAUCUGCCACAAAGCUUGAGAGCAUCUUCGGAUGCAGAGGCGGCAGCCUUCGGUGGCUCGGUAGCGCCAACGUUCUGAACUAUGACACGCAAAACGCGUGUUCCGUUGAAUGGAGUUUAUCAUG [A23U G86U A89G C105G C129U] belongs not above -4.2; to GGAUCUUCUCGAUCUAACAAAAUAGACAAAUCUGCCACAAAGCUUGAGAGCAUCUUCGGAUGCAGAGGCGGCAGCCUUCGGUGGCGAGAUAGCGCCAACGUUCUCAACUAUGACACGCAAAACGCGUGCUCCAUUGAAUGGAGUUUAUCAUG [A23U C87A G133A], not above -4.2. Consider GGAUCUUCUCGAUCUAACAAAAUAGACAAAUCUGCCACAAAGCUUGAGAGCAUCAUCGGAUGCAGAGGCGGCAGCCUUCGGUGGCGCAAUAGCGCCAACGUUCUCAACUAUGAAACGCAAAACGCGUGCUCCGUUCAAUGGAGUUUAUCAUG [A23U U55A G88A C114A G136C], for which the “polymerase ribozyme fitness (log ratio)” value is not above -4.2.

Regarding GGAUCUUCUCGAUCUAACAAAAUAGACAAAUCUGCCACAAAGCUUGAGAGCAUCUUCGGAUGCAGAGGCGGCAGCGUUCGGUGGCGCGAUAGCGCCAACGUUCUCAACUAUGACACGCAAAACGCGUGCUCCGUUGAAUGGAGUUUAUCAUG [A23U C76G], the “polymerase ribozyme fitness (log ratio)” value is not above -4.2. Consider GGAUCUUCUCGAUCUAACAAAAUAGACAAAUCUGCCACAAACCUUGAGAGCAUUUUCGGAUGCAGAGGCGGCAGCAUUCGGUGGCGCGAUAGAGCCAACGUUCUCAACUAUGACACGCAAAACGCGCGCUCCCUUGAAUGGAGUUUAUCAUG [A23U G42C C54U C76A C93A U127C G133C], for which the “polymerase ribozyme fitness (log ratio)” value is not above -4.2. In the case of GGAUCUUCUCGAUCUAACAAAAUAGACAAAUCUGCCACAAAGCUUGAGAGCAACUUCGGAUGCAGAGGCGGCAGCCUUCGGUGGCGCGAUAGCGCAAACGUUCUCAACUAUGAGACGCAAAACGCGUGCUCCGUUGAAUGGAAUUGAUCAUG [A23U U53A C96A C114G G143A U146G], the “polymerase ribozyme fitness (log ratio)” value was not above -4.2. For GGAUCUUCUCGAUCUAACAAAAUAGACAAAUCUGCCACAAAGCUUGAGAGCAUCUUCGGAUGCAGAGGCGGCAGCCUUCGGUGGCGCGAUAGAGCCGACGUUCUCAACUAUGGCACGCAAAACUCGUGCUCCGUUGAAUGGAGUUUAUCAUG [A23U C93A A97G A113G G124U], the “polymerase ribozyme fitness (log ratio)” value is not above -4.2. In the case of GGAUCUUCUCGAUCUAACAAAAUAGACAAAUCUGCCACAAAGCAAGAGAGCAUCUUCGGAUGCAGUGGCGGCAGCCUUCGGUGGCGCGAUAGCGUCAACGUUCUCAACUAUGACACGCAGAACGCGUGCUCCGUUGAAUGGAGUUUAUCAUG [A23U U44A U45A A66U C95U A120G], the “polymerase ribozyme fitness (log ratio)” value was not above -4.2. Take GGAUCUUCUCGAUCUAACAAAAUAUACAUAUCUGCCACAAAGUUUGAGAGCAUCUUCUGAUGCAGAGGCGGCAGCCUUCGGUGGCACGAUAGCGCCAACGUUCUCAGCUAUGACACGCAAAACGCGUGCUCCGUUGAAUGGAGUUUAUCAUG [A23U G25U A29U C43U G58U G86A A107G]: the “polymerase ribozyme fitness (log ratio)” value was not above -4.2. Turning to GGAUCUUCUCGAUCUAACAAAAUAGACAAAUCUGCCACAAAGCUUGAGAACAUCUUCGGAUGCAGAGGCGGCAGCCUUCGGUGGCGCGAUAGCGCCAACGUUCUCAACUAUGACACGCAAAACGCGUGCUCUGUUGAAUCGAGUUUAUCAUG [A23U G50A C132U G140C], the “polymerase ribozyme fitness (log ratio)” value is not above -4.2.
